Assays:
[1] = target: the molecule itself; test: SEC; Superdex 75, 25 mM HEPES pH 7.0, 500 mM NaCl, 5% glycerol, 2 mM DTT, 0.025% azide; second step of the purification; single large peak at ~76 kDa; self-association
[2] = target: the molecule itself; test: crystal structure; apo PxSDR, space group P2(1), 1.45 Å; sitting drop, 0.2 M magnesium chloride, 0.1 M bis-Tris pH 5.5, 25% PEG 3350, 287 K; self-association: tetramer

B1: putative short-chain dehydrogenase/reductase from Paraburkholderia xenovorans (His-PxSDR) (enzyme)
chain: MSSAGRLQGKVALVTGAGCIGPGWGNGRAIAVRFAEEGAHVIAVDRDLASMDATLELVRAAGGSVTPCLCDVTDSASVERLVADSVARCGRVDILVNNVGAPSPGGPVALDEAQWAMQLELNLTTAFLMCKYVLPVMEQQGGGAIVNIASTSGIRWTGAAQVGYAAAKAGMIQMGRVVAVEYAAKNVRVNSVVPGLLHTPMVDTKIAHNQAGGDVELLLRKRQARIPMPFMGDGRDTANAALFLASDEARFVTGTEIVVDGGMSARCD
notes: putative short-chain dehydrogenase/reductase (PxSDR), Paraburkholderia xenovorans strain LB400, UniProt Q13GE3, full length, amplified from genomic DNA; copies therefore left empty; also called P. xenovorans SDR; putative short-chain reductase; source: E. coli BL21(DE3)R3 Rosetta, purified (IMAC on Ni-NTA HisTrap FF, SEC on Superdex 75)
[1]
  stoichiometry N: 2
[2]
  stoichiometry N: 4
